Where a chain is given by its changes, count along the chain named. Values joined by “and” are separate entries in the source; they are usually repeats but may differ in a detail not shown here. Equal values may be shown once.
B1: mAb11010 (antibody, V domains shown)
VH: QVQLVESGGGVVQPGRSLRLSCAASGFTFSSYGMHWVRQAPGKGLEWVAVISYDGSYKYYADSVKGRFTISRDNSKNTLYLQMNSLRAEDTAVYYCAIDGGTVTTIFDYWGQGTLVTVSS
VL: not shown
B2: mAb10989 (antibody, V domains shown)
VH: QVQLVQSGAEVKKPGASVKVSCKASGYIFTGYYMHWVRQAPGQGLEWMGWINPNSGGANYAQKFQGRVTLTRDTSITTVYMELSRLRFDDTAVYYCARGSRYDWNQNNWFDPWGQGTLVTVSS
VL: QSALTQPASVSGSPGQSITISCTGTSSDVGTYNYVSWYQQHPGKAPKLMIFDVSNRPSGVSDRFSGSKSGNTASLTISGLQAEDEADYYCSSFTTSSTVVFGGGTKLTVLG
B3: mAb10986 (antibody, V domains shown)
VH: EVQLVESGGGLVQPGGSLRLSCAASEFTVSSNYMSWVRQAPGKGLEWVSVIYSGGSTFYADSVKGRFTISRDNSKNTLYLQMNSLRAEDTAVYYCARALPYGDLHFDYWGQGTLVTVSS
VL: QSVLTQPPSVSGAPGQRVTISCTGSSSNIGTGYDVHWYQQLPGTAPKLLIYGNTNRPSGVPDRFSGSKSGTSASLAITGLQAEDEADYYCQSYDSSLSDSYVFGTGTKVTVLG
B4: mAb11008 (antibody, V domains shown)
VH: EVQLVESGGGLVQPGGSLRLSCAASGFTVSSNYMTWVRQAPGKGLEWVSVIYSGGSTFYADSVKGRFTISRHNSENTLYLQMNSLRAEDTAVYYCARDLAAAGTDYWGQGALVTVSS
VL: DIQLTQSPSFLSASVGDRVTITCWASQGISSYLAWYQQKPGKAPKLLIYAASTLQSGVPSRFSGSGSGTEFTLTISSLQPDDFATYYCQHLNSYLYTFGQGTKLEIKR
B5: mAb11006 (antibody, V domains shown)
VH: EVQLVESGGGLVQPGGSLRLSCAASGFIVSRNYMSWVRQAPGKGLEWVSVIYSGGSTFYADSVKGRFTISRHNSKNTLYLQMNSLKAEDTAVYYCARELRGYFDYWGQGTLVTVSS
VL: B4 VL with D81E, H90L, L95P
B6: mAb10998 (antibody, V domains shown)
VH: EVQLVESGGGLVHPGGSLRLSCAASGLTVSSNYMSWVRQAPGKGLEWVSVIYSGGSTYYADSVKGRFTISRHNSKNTLFLQMNSLRAEDTAVYYCARDRPITGTTLDVWGQGTTVTVSS
VL: DIQMTQSPSSLFASVGDRVTITCRASQSISSYLNWYQQKPGKAPKLLIYAASSLQSGVPSRFSGSGSGTDFTLTISSLQPEDFAFYYCQQTYSTPPITFGQGTRLEIKR
B7: mAb10984 (antibody, V domains shown)
VH: EVQLVESGGGLVQPGGSLRLSCAASGLTVNRNYMSWVRQAPGKGLEWVSLIYSGGSTYYADSVKGRFTISRDNSKNTLYLQMNSLRLEDTAVYYCARGELGIPYGMDVWGQGTTVTVSS
VL: QSVLTQPPSVSAAPGQKVTISCSGSSSNIGNNYVSWYQQLPGTAPKLLIYDNNKRPSGIPDRFSGSKSGTSATLGITGLQTGDEADYYCGTWDSSLSAGVFGGGTKLTVLG
B8: mAb10913 (antibody, V domains shown)
VH: EVQLVESGGGLVQPGGSLRLSCAASGFTFRNYEMNWVRQAPGKGLEWVSYITSSGSTMYYADSVKGRFTISRDNAKNSLYLQMNSLRAEDTAVYYCARDGFYYYYAMDVWGQGTTVTVSS
VL: QSVLTQPPSVSAAPGQKVTISCSGSSSNIGNNYVSWYQQLPGTAPKLLIYDNNKRPSGIPDRFSGSKSGTSATLGITGLQTGDEADYYCGTWDSSLSVGRVFGTGTKVTVLG
B9: mAb10937 (antibody, V domains shown)
VH: QITLKESGPTLVKPTQTLTLTCTFSGFSLSTNVVGVGWIRQPPGKALEWLALIYWNDDKRYSPSLKSRLTITKDTSKNQVVLTMTNMDPVDTATYYCAHGPTGDYFDYWGQGTLVTVSS
VL: not shown
B10: mAb10936 (antibody, V domains shown)
VH: QVQLVESGGGVVQPGRSLRLSCAASGFTFRNYGMHWVRQAPGKGLEWVSVIWYDGSNRYYADSVKGRFTISRDTSKNTLYLQMNSLRAEDTAVYYCARDPPITGTTGGDAFDIWGQGTMVTVSS
VL: not shown
B11: mAb10920 (antibody, V domains shown)
VH: QVQLVESGGGVVQPGRSLRLSCAASGFTFSYYGMHWVRQAPGKGLEWVAVIWYDGSNKFYADSVKGRFTISRDNSKNTLYLQMNSLRAEDTAVYYCAAARPGYYYGMDVWGQGTTVTVSS
VL: DIQMTQSPSSLSASVGDRVTITCRASQGISNYLAWFQQKPGKAPNSLIYAASSLQRGVPSKFSGSGSGTDFTLTISSLQPEDFATYYCQQYNSYPRTFGQGTKVEIKR
B12: mAb10934 (antibody, V domains shown)
VH: not shown
VL: DIQMTQSPSSLSASVGDRVTITCQASQDIWNYINWYQQKPGKAPKLLIYDASNLKTGVPSRFSGSGSGTDFTFTISSLQPEDIATYYCQQHDDLPPTFGQGTKVEIKR
B13: mAb10935 (antibody, V domains shown)
VH: EVQLVESGGGLVQPGGSLRLSCAASGFTVSSNYMSWVRQAPGKGLEWVSLIYSGGSTYYADSVKGRFTISRHNSKNTLYLQMNSLRSEDTAVYYCARVPLGDYYYGMDVWGQGTTVTVSS
VL: B12 VL with W30N, N31K, I33L, K55E, H91S, D93N, P96L, Q100G
B14: mAb10938 (antibody, V domains shown)
VH: EVQLVESGGGLVQPGGSLRLSCAVSGFTVSSNYMSWVRQAPGKGLEWVSLIYSGGSTFYADSVKGRFTISRHNSKNTLYLQMNSLRAEDTAVYYCAREGGYSYDYNYWGQGTLVTVSS
VL: B12 VL with W30R, I33L, K55E, S65I, H91Y, D93N, P96I, K103R, V104L
B15: mAb10915 (antibody, V domains shown)
VH: B5 VH with I28T, R31S, S35N, K86R, A87P, E98D, R100G
VL: not shown
B16: mAb10982 (antibody, V domains shown)
VH: EVQLVESGGGLVQPGGSLRLSCAASGLTVSSNYMSWVRQAPGKGLEWVSVIYSGGTTYYADSVKGRFTISRHNSKNTLSLQMNSLRAEDTAVYYCARGEGANYYGMDVWGQGTTVTVSS
VL: B3 VL with T54S, D99G, S100Y, Y101V, T105G, V109L
B17: mAb10930 (antibody, V domains shown)
VH: EVQLVESGGGLVQPGRSLRLSCAASGFTFDDYAMYWVRQAPGKGLEWVSGISWNSGSIGYADSVKGRFTISRDNAKNSLYLQMNSLRAADTALYYCAKDKDWNSRGYYYYGMDVWGQGTTVTVSS
VL: not shown
B18: mAb10921 (antibody, V domains shown)
VH: EVQLVESGGGLVQPGGSLRLSCAASGITVSSNYMSWVRQAPGKGLEWVSVIYSGGSTFYADSVKGRFTISRHNSKNTLYLQMNSLRAEDTAVYYCARERNFDAFDIWGQGTMVTVSS
VL: DIQMTQSPSSVSASVGDRVTITCRASQGISSWLAWYQQKPGKAPKLLIYAASSLQSGVPSRFSGSGSGTDFTLTISSLQPEDFATYYCQQANSFPLFTFGPGTKVDIKR
B19: mAb10914 (antibody, V domains shown)
VH: EVQLVESGGGLVQPGGSLRLSCAASGLIVSRNYMIWVRQAPGKGLEWVSVIYSGGSTFYADSVKGRFTISRHNSKNTLYLQMNSLRAEDTAVYYCARDLGTGGMDVWGQGTTVTVSS
VL: B4 VL with D81E, H90Q, L95P, Y96L, Q100G, L104V
B20: mAb10932 (antibody, V domains shown)
VH: EVQLVESGGGLVQSGGSLRLSCAASGLTVSSNYMSWVRQAPGKGLEWVSVIYSGGSTFYSDSVKGRFTISRHNSKNTLYLQMNSLRAEDTAVYYCARARGDAFDIWGQGTMVTVSS
VL: not shown
B21: mAb10939 (antibody, V domains shown)
VH: EVQLVESGGGLVQPGGSLRLSCAASGLTVSSNYMNWVRQVPGKGLEWVSVIYSGGSKFYVDSVKGRFTISRHNSKNTLYLQMNSLRPEDTAVYYCTRDAQYYGMDVWGQGTTVTVSS
VL: B6 VL with F12S, S31T, N34H, K42E, F85T, T91S, I97E, T98I, R104K
B22: mAb10923 (antibody, V domains shown)
VH: QVQLVQSGAEVKKPGASVKVSCKASGYTFINYYIHWVRQAPGQGLEWMGWINPNSGGTNYAQKFQGRVTMTRDTSISTAYMELSRLRSDDTAVYYCAIITIFGVVTWFDPWGQGTLVTVSS
VL: not shown
B23: mAb10986 (antibody, V domains shown)
VH: B3 VH
VL: B3 VL

These binders were tested against SARS-COV-2 Spike protein receptor binding domain (amino acids Arg319-Phe541) expressed with the Fc p (SARS-CoV-2) (assay: not given).
For B1, the IC50 was 0.147 nM. With B2 the IC50 was 0.0591 nM and 0.0428 nM. With B3 the IC50 was 0.0754 nM. In the case of B4, the IC50 is reported as 1.49 nM. Work on B5 yielded an IC50 of 0.22 nM. Binder B6 has an IC50 of 4.3 nM.

These binders were tested against SARS-CoV-2 Spike Protein (RBD) (R319-F541).hFc (SARS-CoV-2) (assay: Luminex beads, supernatant).
With B7 the MFI was 28400 MFI. Binder B8 has an MFI of 31900 MFI. In the case of B9, the MFI is reported as 34600 MFI. B10 showed an MFI of 33900 MFI. For B11, the MFI was 36800 MFI. B12 gave an MFI of 35800 MFI. In the case of B13, the MFI is reported as 35600 MFI. B14 gave an MFI of 29600 MFI. B15 gave an MFI of 32400 MFI. In the case of B16, the MFI is reported as 23000 MFI. In the case of B17, the MFI is reported as 28900 MFI. With B18 the MFI was 22300 MFI. For B19, the MFI was 30500 MFI. B20 gave an MFI of 30600 MFI. With B21 the MFI was 32900 MFI. Binder B22 has an MFI of 37800 MFI.

Each binder was assayed against SARS-CoV-2 Spike Protein (RBD) (R319-F541).mFc (SARS-CoV-2) (assay: Luminex beads, supernatant).
For B7, the MFI was 28400 MFI. B8 was tested, and the MFI was 33000 MFI. In the case of B9, the MFI is reported as 34200 MFI. Binder B10 has an MFI of 33700 MFI. Work on B11 yielded an MFI of 36400 MFI. In the case of B12, the MFI is reported as 34300 MFI. B13 showed an MFI of 35900 MFI. In the case of B14, the MFI is reported as 30500 MFI. With B15 the MFI was 31800 MFI. B16 gave an MFI of 23300 MFI. B23 gave an MFI of 28400 MFI. Binder B17 has an MFI of 28600 MFI. Work on B18 yielded an MFI of 19400 MFI. In the case of B19, the MFI is reported as 30700 MFI. B20 gave an MFI of 30600 MFI. Binder B21 has an MFI of 33900 MFI. Binder B22 has an MFI of 37400 MFI.

The binders below were run against Bt-SARS-CoV-2 Spike Protein (RBD) (R319-F541).mFc (SARS-CoV-2) (assay: Luminex beads, supernatant).
Binder B7 has an MFI of 17100 MFI. B8 showed an MFI of 16600 MFI. B9 gave an MFI of 19700 MFI. Work on B10 yielded an MFI of 21600 MFI. Binder B11 has an MFI of 20300 MFI. B12 showed an MFI of 21200 MFI. B13 was tested, and the MFI was 19300 MFI. B14 was tested, and the MFI was 17200 MFI. B15 gave an MFI of 20100 MFI. B16 gave an MFI of 12300 MFI. With B23 the MFI was 15900 MFI. With B17 the MFI was 16600 MFI. Binder B18 has an MFI of 11300 MFI. With B19 the MFI was 16000 MFI. Binder B20 has an MFI of 17700 MFI. B21 gave an MFI of 18700 MFI. B22 gave an MFI of 19600 MFI.

Source: US20260234738A1 (Regeneron, published 2026)
